Data: publication PMC7041945, “Misfolded proteins bind and activate death receptor 5 to trigger apoptosis during unresolved endoplasmic reticulum stress” (eLife, 2020)

Tested on: CHOP, BiP, and DR5 mRNA in HCT116 cells
Assay: qPCR of UPR target transcripts (CHOP, BiP, DR5)
Format: cell-based, Homo sapiens
Conditions: HCT116; for ERO1alpha (386+387) avg. fold induction relative to empty traffo / ERO1alpha (386+387) fold induction relative to empty traffo: melt curves for these primers showed two peaks; for GAPDH avg. fold induction relative to empty traffo / GAPDH fold induction relative to empty traffo: sheet Cq data 2
Experimental: Cells were grown in 6-well plates and harvested with 0.5 ml of TRIzol reagent (Life Technologies) per manufacturer’s protocol to extract RNA. For cDNA synthesis, 500 ng of total RNA was reverse transcribed with 2 μl of the SuperScript VILO master mix (Life Technologies # 11755050) in a total reaction volume of 10 μl following the manufacturer’s protocol for reaction temperature and duration. The reverse transcription product was diluted to 200 μl with 10 mM Tris-HCl pH 8.2 and used at 1:100 dilution for subsequent RT-PCR reactions.
PCR samples were prepared as described by manufacturer’s protocols from iQ SYBR Green Supermix (BioRad #17088800).
For each experiment, qRT-PCR reactions were set up in triplicate and run using a CFX96 Real Time System (Bio-Rad). Quantitation cycles were determined with CFX Manager 3.0 software (Bio-Rad) and then normalized to GAPDH as an internal control.

[1] = pRK CHOP 31 ng, mean of 3 replicates
[2] = pRK CHOP 62 ng, mean of 3 replicates
[3] = pRK CHOP 125 ng, mean of 3 replicates

B1: pRK CHOP (protein, UniProt P35638 1-169, looked up)
DNA damage-inducible …: MAAESLPFSFGTLSSWELEAWYEDLQEVLSSDENGGTYVSPPGNEEEESKIFTTLDPASLAWLTEEEPEPAEVTSTSQSPHSPDSSQSSLAQEEEEEDQGRTRKRKQSGHSPARAGKQRMKEKEQENERKVAQLAEENERLKQEIERLTREVEATRRALIDRMVNLHQA
modifications: expression plasmid
GAPDH (qPCR CHOP, Sheet1) (pRK CHOP 31 ng, replicate 1): 0.869
CHOP (qPCR CHOP, Sheet1) (pRK CHOP 31 ng, replicate 2): 19.1521
DR5 (qPCR CHOP, Sheet1) (pRK CHOP 31 ng, replicate 2): 0.9212
GADD34 (qPCR CHOP, Sheet1) (pRK CHOP 31 ng, replicate 2): 1.088
GAPDH (qPCR CHOP, Sheet1) (pRK CHOP 31 ng, replicate 2): 1.031
CHOP (qPCR CHOP, Sheet1) (pRK CHOP 31 ng, replicate 3): 20.8362
DR5 (qPCR CHOP, Sheet1) (pRK CHOP 31 ng, replicate 3): 2.023
GADD34 (qPCR CHOP, Sheet1) (pRK CHOP 31 ng, replicate 3): 1.137
GAPDH (qPCR CHOP, Sheet1) (pRK CHOP 31 ng, replicate 3): 1.033
GADD34 (388+389) avg. fold induction relative to empty traffo [1]: 1
GFP avg. fold induction relative to empty traffo [1]: 1.822
ERO1alpha (386+387) avg. fold induction relative to empty traffo [1]: 1.061
ERO1alpha (386+387) fold induction relative to empty traffo (pRK CHOP 31 ng, replicate 1): 0.958
ERO1alpha (386+387) fold induction relative to empty traffo (pRK CHOP 31 ng, replicate 2): 1.088
ERO1alpha (386+387) fold induction relative to empty traffo (pRK CHOP 31 ng, replicate 3): 1.137
GADD34 (388+389) fold induction relative to empty traffo (pRK CHOP 31 ng, replicate 1): 1.125
GFP fold induction relative to empty traffo (pRK CHOP 31 ng, replicate 1): 1.737
GADD34 (388+389) fold induction relative to empty traffo (pRK CHOP 31 ng, replicate 2): 0.859
GFP fold induction relative to empty traffo (pRK CHOP 31 ng, replicate 2): 1.908
GADD34 (388+389) fold induction relative to empty traffo (pRK CHOP 31 ng, replicate 3): 1.016
GFP fold induction relative to empty traffo (pRK CHOP 31 ng, replicate 3): 1.822
GAPDH avg. fold induction relative to empty traffo [1]: 1.0065
GAPDH fold induction relative to empty traffo (pRK CHOP 31 ng, replicate 1): 0.9404
GAPDH fold induction relative to empty traffo (pRK CHOP 31 ng, replicate 2): 0.905
GAPDH fold induction relative to empty traffo (pRK CHOP 31 ng, replicate 3): 1.174
GFP avg. fold induction relative to empty traffo [2]: 1.726
ERO1alpha (386+387) avg. fold induction relative to empty traffo [2]: 1.099
ERO1alpha (386+387) fold induction relative to empty traffo (pRK CHOP 62 ng, replicate 1): 1.074
ERO1alpha (386+387) fold induction relative to empty traffo (pRK CHOP 62 ng, replicate 2): 1.056
ERO1alpha (386+387) fold induction relative to empty traffo (pRK CHOP 62 ng, replicate 3): 1.168
GADD34 (388+389) fold induction relative to empty traffo (pRK CHOP 62 ng, replicate 1): 0.9151
GFP fold induction relative to empty traffo (pRK CHOP 62 ng, replicate 1): 1.604
GADD34 (388+389) fold induction relative to empty traffo (pRK CHOP 62 ng, replicate 2): 1.316
GFP fold induction relative to empty traffo (pRK CHOP 62 ng, replicate 2): 1.747
GADD34 (388+389) fold induction relative to empty traffo (pRK CHOP 62 ng, replicate 3): 1.12
GFP fold induction relative to empty traffo (pRK CHOP 62 ng, replicate 3): 1.828
GAPDH avg. fold induction relative to empty traffo [2]: 1.001
GAPDH fold induction relative to empty traffo (pRK CHOP 62 ng, replicate 1): 0.9597
GAPDH fold induction relative to empty traffo (pRK CHOP 62 ng, replicate 2): 0.9785
GAPDH fold induction relative to empty traffo (pRK CHOP 62 ng, replicate 3): 1.064
CHOP (qPCR CHOP, Sheet1) (pRK CHOP 125 ng, replicate 1): 230.561
DR5 (qPCR CHOP, Sheet1) (pRK CHOP 125 ng, replicate 1): 1.242
GADD34 (qPCR CHOP, Sheet1) (pRK CHOP 125 ng, replicate 1): 1.11
GAPDH (qPCR CHOP, Sheet1) (pRK CHOP 125 ng, replicate 1): 0.8158
CHOP (qPCR CHOP, Sheet1) (pRK CHOP 125 ng, replicate 2): 173.762
DR5 (qPCR CHOP, Sheet1) (pRK CHOP 125 ng, replicate 2): 1.206
GADD34 (qPCR CHOP, Sheet1) (pRK CHOP 125 ng, replicate 2): 1.18
GAPDH (qPCR CHOP, Sheet1) (pRK CHOP 125 ng, replicate 2): 1.045
CHOP (qPCR CHOP, Sheet1) (pRK CHOP 125 ng, replicate 3): 257.78
DR5 (qPCR CHOP, Sheet1) (pRK CHOP 125 ng, replicate 3): 1.064
GADD34 (qPCR CHOP, Sheet1) (pRK CHOP 125 ng, replicate 3): 1.241
GAPDH (qPCR CHOP, Sheet1) (pRK CHOP 125 ng, replicate 3): 1.086
GFP avg. fold induction relative to empty traffo [3]: 8.414
ERO1alpha (386+387) avg. fold induction relative to empty traffo [3]: 1.177
